Key:
ATP production = ATP production calculated from lactate production rates and oxygen consumption; format: cell-based, human; conditions: SW480 cells; HMGB1 80 nM, 24 h
Procedure: Lactate derived from the metabolism of ^13C6-D-glucose or ^13C5-glutamine was determined by comparing the CH3 group intensities of labeled and non-labeled lactate in NMR. Mitochondrial respiration was measured using an Oroboros 1 oxygraph system. Glycolysis was measured by monitoring the conversion of 5-^3H-Glucose to ^3H2O. Incorporation of ^14C into RNA ribose from U-^14C-labelled glucose was taken as glucose utilization in the pentose phosphate shunt. Enzymatic activities were determined in subcellular fractions as previously described^24.
For analysis of ^13C-lactate efflux 1 ml of the cellular supernatant was centrifuged (8,000×g, 10 min, 4° C.) to spin down cellular debris. To 500 μl of the supernatant 10% of D2O were added respectively and transferred to 5 mm NMR sample tubes. The samples were measured with a Bruker AvanceIII 600 NMR spectrometer, equipped with a cryogenically cooled detection probe (QNP-CryoProbe™).

tetrameric PK M2 = target: T1, tetrameric PK M2 (Homo sapiens, UniProt P14618); assay: Pyruvate kinase enzymatic assay in cytosolic fractions / homogenates (low PEP); format: cell-based
T1 construct: Activities of glycolytic enzymes measured in cytosolic fractions after treatment with HMGB1; endogenous in cells; host or cells: SW480, HCT116, HT29 cytosolic fractions; homogenates of human colon cancer tissue slices
T1 sequence (P14618 2-531): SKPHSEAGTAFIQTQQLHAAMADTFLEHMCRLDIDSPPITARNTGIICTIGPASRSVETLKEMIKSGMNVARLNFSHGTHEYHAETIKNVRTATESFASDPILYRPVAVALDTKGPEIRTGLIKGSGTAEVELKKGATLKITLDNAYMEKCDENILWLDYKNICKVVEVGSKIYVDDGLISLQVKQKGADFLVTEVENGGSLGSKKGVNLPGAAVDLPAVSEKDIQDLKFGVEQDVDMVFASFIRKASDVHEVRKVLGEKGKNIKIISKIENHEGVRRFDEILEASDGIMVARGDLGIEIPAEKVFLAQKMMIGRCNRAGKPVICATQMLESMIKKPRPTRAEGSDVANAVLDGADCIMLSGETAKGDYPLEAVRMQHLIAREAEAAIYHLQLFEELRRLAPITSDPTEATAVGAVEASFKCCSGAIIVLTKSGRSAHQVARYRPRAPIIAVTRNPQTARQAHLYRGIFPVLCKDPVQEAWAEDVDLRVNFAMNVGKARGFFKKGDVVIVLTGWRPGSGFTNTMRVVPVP
Procedure: (§1) Enzymatic activities of respiratory chain complexes, glycolytic proteins and malic enzyme were determined in subcellular fractions as previously described (Kaminski, M. M. et al. T cell activation is driven by an ADP-dependent glucokinase linking enhanced glycolysis with mitochondrial reactive oxygen species generation. Cell reports 2, 1300-1315 (2012).Bruncko, M. et al. Naphthamidine urokinase plasminogen activator inhibitors with improved pharmacokinetic properties. Bioorganic & medicinal chemistry letters 15, 93-98, (2005)) using a computer-tuneable spectrophotometer (Spectramax Plus Microplate Reader, Molecular Devices; Sunny Vale, Calif., USA) operating in the dual wavelength mode; samples were analyzed in temperature-controlled 96-well plates in a final volume of 300 μl. Activity of ME1 was recorded in presence of increasing amounts of malic acid (0.02, 0.05, 0.1, 0.2, 0.5, 1, 2.5 mM). Vmax and Km were calculated using a Hanes-Woolf plot. In the presence of high substrate levels the Km for malic acid was similar in all three tested cell lines (SW480: 0.32 mM, HCT116: 0.30 mM, HT29: 0.31 mM). Vmax (mU/mg protein) values were 3.38 (SW480, 0.5-5.0 mM malic acid), 5.77 (HCT116, 0.5-5.0 mM malic acid) and 3.68 (HT29, 0.5-5.0 mM malic acid) and 1.68 (SW480, 0.02-0.2 mM malic acid), 3.24 (HCT116, 0.02-0.2 mM malic acid) and 1.89 (HT29, 0.02-0.2 mM malic acid). Two isoforms of ME1, mitochondrial (NAD(P)+dependent) ME3 and mitochondrial (NAD+dependent) ME2, had very low or no detectable activities (data not shown).

Dimeric PK M2 = target: T2, Dimeric PK M2 (Homo sapiens, UniProt P14618); assay: Pyruvate kinase enzymatic assay (high PEP); format: cell-based; conditions: colorectal cancer cells
T2 construct: Activities of glycolytic enzymes measured in cytosolic fractions after treatment with HMGB1; endogenous in cells; host or cells: SW480, HCT116, HT29 cytosolic fractions; homogenates of human colon cancer tissue slices
T2 sequence (P14618 2-531 limits assumed): as the sequence (P14618 2-531) above
Procedure: as §1, with “Two isoforms of ME1, mitochondrial (NAD(P)+dependent) ME3 and mitochondrial (NAD+dependent) ME2, had very low or no detectable activities (data not shown).” left out

HMGB1: recombinant human HMGB1 protein (Sigma-Aldrich); High Mobility Group Box 1 polypeptide, human, SEQ ID NO: 4
decline of ATP production (ATP production): ~50%
tetrameric PK M2 activity (tetrameric PK M2; all colorectal cancer cell lines tested, HMGB1 80 nM, 24 h): specifically inhibited
tetrameric PK M2 activity (tetrameric PK M2; ex vivo tissue slice cultures, HMGB1 160 nM, 72 h): specifically inhibited
Dimeric PK M2 activity (Dimeric PK M2): unchanged

— patent US11274132B2, “Combined preparations of PKM2 modulators and HMGB1” (Ruprecht-Karls-Universität Heidelberg, priority 2015, dated 2022)
